Among the data in paper PMC5762392 (Nature biotechnology, 2017) are IC50 values, retold here.

The target of the assay is MBP fused to the Tudor domain (residues 1484–1603) of 53BP1 (human, UniProt Q12888 1484-1603). Nature of the assay: pull-down.

Non-standard residues stand in square brackets, D forms with d. No end group written: not given here. *: point of attachment. Biotin = O=C1N[C@H]2[C@H](CS[C@H]2CCCCC(=O)*)N1; Lys(Me2) = CN(C)CCCC[C@H](N)C(=O)O

Sequence of MBP fused to the Tudor domain (residues 1484–1603) of 53BP1 (Q12888 1484-1603): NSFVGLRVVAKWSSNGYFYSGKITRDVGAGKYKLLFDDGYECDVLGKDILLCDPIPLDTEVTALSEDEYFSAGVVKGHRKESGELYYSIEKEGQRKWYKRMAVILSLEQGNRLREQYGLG

By IC50 is commonly meant the midpoint of a concentration-inhibition curve. A low value points to higher potency. Turning to {Biotin-Mini‑PEG}-YGKGGAKRHR[Lys(Me2)]VLRD [biotin-labeled peptide derived from histone H4K20me2], the half-inhibitory concentration (IC50) lay within 100 to 300 µM.
